Experiments:
Assay in all cases: competitive ELISA
[1] = target: affinity purified β2GPI-dependent antiphospholipid antibody from patient 6203
[2] = target: affinity purified β2GPI-dependent antiphospholipid antibody from patient 6501
[3] = target: affinity purified β2GPI-dependent antiphospholipid antibody from patient 6509
[4] = target: affinity purified β2GPI-dependent antiphospholipid antibody from patient 6626
[5] = target: affinity purified β2GPI-dependent antiphospholipid antibody from patient 6632
[6] = target: affinity purified β2GPI-dependent antiphospholipid antibody from patient 6641
[7] = target: affinity purified β2GPI-dependent antiphospholipid antibody from patient 6644
[8] = target: affinity purified β2GPI-dependent antiphospholipid antibody from patient 6652
[9] = target: affinity purified β2GPI-dependent antiphospholipid antibody from patient 6701
[10] = target: affinity purified β2GPI-dependent antiphospholipid antibody from patient 7008
[11] = target: affinity purified β2GPI-dependent antiphospholipid antibody from patient 7015
[12] = target: affinity purified β2GPI-dependent antiphospholipid antibody from patient 7101
[13] = target: affinity purified β2GPI-dependent antiphospholipid antibody from patient 7104

- Max inhibition [1]: 5%
- Max inhibition [2]: 10%
- Max inhibition [3]: 10%
- Max inhibition [4]: 10%
- Max inhibition [5]: 10%
- Max inhibition [6]: 10%
- Max inhibition [7]: 10%
- Max inhibition [8]: 15%
- Max inhibition [9]: 10%
- Max inhibition [10]: 20%
- Max inhibition [11]: 10%
- Max inhibition [12]: 5%
- Max inhibition [13]: 0%
B1: recombinant human β2GPI domain 5, GlyHis6 (protein)
chain: GRASCKLPVKKATVVYQGERVKIQEKFKNGMLHGDKVSFFCKNKEKKCSYTEDAQCIDGTIEVPKCFKEHSSLAFWKTDASDVKPCGHHHHHH
